Source: article PMC8012715, “Mechanism of NanR gene repression and allosteric induction of bacterial sialic acid metabolism” (Nature Communications, 2021)

Experiments:
[1] = biological target: T1, NanR (Escherichia coli K12) (UniProt P0A8W0); assay: EMSA; conditions: 10 nM DNA, EMSA: 10 mM MOPS pH 7.5, 50 mM KCl, 5 mM MgCl2, 10% glycerol, 30 min at room temperature, gel at 4 C, fluorescence AUC: 20 mM Tris-HCl pH 8.0, 150 mM NaCl …
T1 sequence: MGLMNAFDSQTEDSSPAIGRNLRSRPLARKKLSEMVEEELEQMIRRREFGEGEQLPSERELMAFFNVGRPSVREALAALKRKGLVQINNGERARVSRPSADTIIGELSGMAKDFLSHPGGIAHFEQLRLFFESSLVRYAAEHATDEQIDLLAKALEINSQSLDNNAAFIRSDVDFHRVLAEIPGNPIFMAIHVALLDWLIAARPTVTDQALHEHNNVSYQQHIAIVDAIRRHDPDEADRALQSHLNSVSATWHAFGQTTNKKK

[2] = biological target: T1, NanR (Escherichia coli K12); assay: fluorescence-detected AUC; conditions: 80 nM DNA, EMSA: 10 mM MOPS pH 7.5, 50 mM KCl, 5 mM MgCl2, 10% glycerol, 30 min at room temperature, gel at 4 C, fluorescence AUC: 20 mM Tris-HCl pH 8.0, 150 mM NaCl …

(GGTATA)2-repeat, FAM
Kd ([1]; Hill n = 2.8 ± 0.3, two complexes): 0.025 µM

(GGTATA)3-repeat operator, FAM
Kd ([1]; Hill n = 2.0 ± 0.2, apparent KD): 0.039 µM | Kd ([2]; 20 mM Neu5Ac, Hill n = 2.0 ± 0.6): 0.578 µM | Kd ([2]; Hill n = 1.9 ± 0.2, no Neu5Ac): 0.02 µM
